# Assay results as given in patent US10907134B2, “Mutated genes for the catalytic protein of oplophorus luciferase and use thereof” (JNC CORPORATION, priority 2013, dated 2021).
# Substitutions are numbered along the chain they refer to. In names and notes the source's numbering stands.
# B1: KAZ-A54I: KAZ with single amino acid substitution A54I, SEQ ID NO: 6 (protein)
# chain: FTLADFVGDWQQTAGYNQDQVLEQGGLSSLFQALGVSVTPIQKVVLSGENGLKIDIHVIIPYEGLSGFQMGLIEMIFKVVYPVDDHHFKIILHYGTLVIDGVTPNMIDYFGRPYPGIAVFDGKQITVTGTLWNGNKIYDERLINPDGSLLFRVTINGVTGWRLCENILA
# B2: KAZ-V44I-Y138I: KAZ mutant with two amino acid substitutions V44I and Y138I, SEQ ID NO: 12 (protein)
# chain: B1 chain with V44I, I54A, Y138I
# B3: KAZ-V44I: KAZ with single amino acid substitution V44I, SEQ ID NO: 4 (protein)
# chain: B1 chain with V44I, I54A
# B4: KAZ-V44I-A54I: KAZ mutant with two amino acid substitutions V44I and A54I, SEQ ID NO: 10 (protein)
# chain: B1 chain with V44I
# B5: KAZ-Y138I: KAZ with single amino acid substitution Y138I, SEQ ID NO: 8 (protein)
# chain: B1 chain with I54A, Y138I
# B6: KAZ-A54I-Y138I: KAZ mutant with two amino acid substitutions A54I and Y138I, SEQ ID NO: 14 (protein)
# chain: B1 chain with Y138I
# Test system: not listed separately
# Test: Substrate specificities of KAZ mutants (ZZ-fused, crude enzyme), 6h-CTZ
# Assay type: biochemical
# Conditions: 1 μg substrate, integrated for 60 seconds
# Protocol: (§1) The coelenterazine analogues used for substrate specificity studies were synthesized by the methods described in publications. Specifically, bis-coelenterazine was synthesized by the method described in Nakamura et al. (1997) Tetrahedron Lett. 38: 6405-6406; furimazine by the method described in Hall et al. (2012) ACS Chem. Biol. […]; and, 6h-coelenterazine, f-coelenterazine and 6h-f-coelenterazine by the methods described in Inouye et al (2013) Biochem. Biophys. Res. Commun. 437: 23-28.
# (§2) DTT was added to the crude enzyme solutions obtained in EXAMPLE 17 at a final concentration of 1 mM and the mixtures were allowed to stand in an ice water for more than 5 hours in the same manner as Example 8. A luminescence reaction was started by the addition of 1 μL each of the crude enzyme solutions to 100 μL of TE containing 1 μg of coelenterazine (manufactured by JNC Corp.) or its analogues. The luminescence activities were determined using a luminometer (manufactured by Atto Inc.: AB2200) for 60 seconds, and the maximum intensity of luminescence (Imax) was shown as relative luminescence activity.
row,Relative Luminescence Activity 6h-CTZ Int.,Molecule
1,2.1,B1
2,5.3,B2
3,0.6,B3
4,5.6,B4
5,0.3,B5
6,6.1,B6

# Same assay, conditions: 1 μg substrate, maximum intensity of luminescence
row,Relative Luminescence Activity 6h-CTZ Imax,Molecule
1,1.6,B1
2,4.3,B2
3,0.4,B3
4,4.5,B4
5,0.2,B5
6,5.8,B6

# Test system: not listed separately
# Test: Substrate specificities of KAZ mutants (ZZ-fused, crude enzyme), furimazine
# Assay type: biochemical
# Conditions: 1 μg substrate, integrated for 60 seconds
# Protocol: as §1, §2
row,Relative Luminescence Activity Furimazine Int.,Molecule
1,2.1,B1
2,5.4,B2
3,0.9,B3
4,4.3,B4
5,0.8,B5
6,5.8,B6

# Same assay, conditions: 1 μg substrate, maximum intensity of luminescence
row,Relative Luminescence Activity Furimazine Imax,Molecule
1,2.0,B1
2,5.1,B2
3,0.6,B3
4,3.4,B4
5,0.6,B5
6,5.9,B6

# Test system: CHO-K1 cells
# Test: Luminescence activity of KAZ mutants expressed in animal culture cells with signal peptide of Gaussia luciferase for secretion
# Assay type: cell-based, Chinese hamster
# Conditions: Table 5; pcDNA3-GLsp- vectors; CHO-K1, 48 hours; 5 μL cell extracts; 0.5 μg coelenterazine
# Protocol: (§3) Chinese hamster ovary cell line CHO-K1 was cultured in Ham's F-12 medium (manufactured by Wako Pure Chemical Industries, Ltd.) supplemented with 10% (v/v) fetal bovine serum (manufactured by Biowest Inc.). The CHO-K1 cells were plated in a 6-well plate in 1×10^5 cells/well/2 mL medium (n=2) and cultured in an incubator at 37° C. in 5% (v/v) CO2. After 24 hours, the purified recombinant plasmid was transfected to CHO-K1 cells using a FuGene HD transfection kit (manufactured by Promega Corp.), which was provided for subsequent experiment. Specifically, 1 μg of the recombinant plasmid pGL4.13 [Luc2/sv40], 0.1 μg of the internal standard vector and 3 μL of FuGene HD were added to 100 μL of the medium, which was allowed to stand at room temperature for 15 minutes. Subsequently, 100 μL of the DNA-FuGene complex was added to the cells in the 6 wells. After incubation for 48 hours, the culture medium was collected. On the other hand, the KAZ mutants expressed in the cells were washed 3 times with 3 mL of 1×PBS, then suspended in 1 mL of 1×PBS and disrupted on ice by ultrasonication, which was used as enzyme solutions of the cell-extracts of KAZ mutants.
# (§4) A luminescence reaction was started by adding 5 μL of the culture media and cell extracts obtained in EXAMPLE 10 to 100 μL of 30 mM Tris-HCl (pH 7.6)-10 mM EDTA (manufactured by Wako Pure Chemical Industries, Ltd.) containing 0.5 μg of coelenterazine (manufactured by INC Corp.). The luminescence activity was determined using a luminometer (manufactured by Atto Inc.: AB2200) for 60 seconds, and the maximum intensity of luminescence (Imax) was defined as a percentage.
# Culture media of the KAZ mutants with two amino acid substitutions and KAZ mutants with three amino acid substitutions and the enzyme solutions of the cell-extracts of KAZ mutants were prepared in the same manner as EXAMPLE 10.
# In the resultant enzyme solutions and the enzyme solutions of the cell-extracts of KAZ mutants, luminescence activities were determined in the same manner as EXAMPLE 11.
row,Molecule,Relative Luminescence Activity (Imax) (%) Cell Extracts [%]
1,B1,2.4
2,B3,0.7
3,B5,1.0

# Same assay, conditions: Table 5; pcDNA3-GLsp- vectors; CHO-K1, 48 hours; 5 μL culture medium; 0.5 μg coelenterazine
row,Molecule,Relative Luminescence Activity (Imax) (%) Culture Medium
1,B1,less than 0.01%
2,B3,less than 0.01%
3,B5,less than 0.01%

# Same assay, conditions: Table 11; pcDNA3-GLsp- vectors; CHO-K1; cell extracts; coelenterazine
row,Molecule,"Relative Luminescence Activity (%, Imax) Cell Extracts [%]"
1,B2,11.2
2,B4,13.9
3,B6,16.0

# Same assay, conditions: Table 11; pcDNA3-GLsp- vectors; CHO-K1; culture medium; coelenterazine
row,Molecule,"Relative Luminescence Activity (%, Imax) Culture Medium"
1,B2,less than 0.01%
2,B4,0.07%
3,B6,0.03%

# Test system: not listed separately
# Test: Substrate specificities of KAZ mutants (ZZ-fused, crude enzyme), CTZ
# Assay type: biochemical
# Conditions: ZZ-fused crude enzyme; 1 μg substrate; integrated for 60 seconds
# Protocol: as §1, §2
row,Relative Luminescence Activity CTZ Int.,Molecule
1,9.0,B1
2,9.9,B2
3,5.9,B3
4,12.7,B4
5,5.9,B5
6,19.1,B6

# Same assay, conditions: ZZ-fused crude enzyme; 1 μg substrate; maximum intensity of luminescence
row,Relative Luminescence Activity CTZ Imax,Molecule
1,8.4,B1
2,17.1,B2
3,7.2,B3
4,15.3,B4
5,7.5,B5
6,23.1,B6

# Same assay, conditions: coelenterazine versus its analogues
row,Molecule,Substrate specificity
1,B2,high substrate specificity for coelenterazine
2,B4,high substrate specificity for coelenterazine
3,B6,high substrate specificity for coelenterazine

# Test system: not listed separately
# Test: Substrate specificities of KAZ mutants (ZZ-fused, crude enzyme), h-CTZ
# Assay type: biochemical
# Conditions: 1 μg substrate, integrated for 60 seconds
# Protocol: as §1, §2
row,Relative Luminescence Activity h-CTZ Int.,Molecule
1,6.9,B1
2,9.7,B2
3,2.2,B3
4,8.7,B4
5,3.0,B5
6,12.9,B6

# Same assay, conditions: 1 μg substrate, maximum intensity of luminescence
row,Relative Luminescence Activity h-CTZ Imax,Molecule
1,11.8,B1
2,19.1,B2
3,3.7,B3
4,17.9,B4
5,3.9,B5
6,24.2,B6

# Test system: CHO-K1 cells
# Test: Luminescence activity of KAZ mutants expressed in animal culture cells without secretional signal peptide sequence
# Assay type: cell-based, Chinese hamster
# Conditions: Table 12; pcDNA3- vectors without secretion signal; CHO-K1; cell extracts; coelenterazine
# Protocol: as §3, §4
# The gene fragments of the KAZ mutants with two amino acid substitutions and three amino acid substitutions and nanoKAZ containing the Kozak sequence were digested with restriction enzymes Asp718 and XbaI, and inserted into the Asp718-XbaI site of pcDNA3 vector (manufactured by Invitrogen Inc.) to construct the vectors of pcDNA3-KAZ-V44I, pcDNA3-KAZ-A54I, pcDNA3-KAZ-Y138I, pcDNA3-KAZ-V44I-A54I, pcDNA3-KAZ-V44I-Y138I, pcDNA3-KAZ-A54I-Y138I and pcDNA3-KAZ-V44I-A54I-Y138I.
# The culture media of the KAZ mutants with two amino acid substitutions and KAZ mutants with three amino acid substitutions and the enzyme solutions of cell-extracts of KAZ mutants were obtained in the same manner as EXAMPLE 10.
# Luminescence activities of the resulting enzyme solutions and enzyme solutions of the cell-extracts of KAZ mutants were determined in the same manner as EXAMPLE 11.
row,Molecule,Relative Luminescence Activity (Imax) Cell Extracts
1,B1,6.7
2,B2,14.7
3,B3,3.7
4,B4,22.5
5,B5,6.4
6,B6,21.5

# Same assay, conditions: Table 12; pcDNA3- vectors without secretion signal; CHO-K1; culture medium; coelenterazine
row,Molecule,Relative Luminescence Activity (Imax) Culture Medium
1,B1,0.03
2,B2,0.04
3,B3,0.06
4,B4,0.05
5,B5,0.03
6,B6,0.05

# Same assay, conditions: summary of results
row,Molecule,Luminescence activity compared with wild KAZ when coelenterazine was used as a substrate
1,B2,markedly higher luminescence activities than wild KAZ
2,B4,markedly higher luminescence activities than wild KAZ
3,B6,markedly higher luminescence activities than wild KAZ

# Same assay, conditions: vectors without a secretion signal; CHO-K1; coelenterazine
row,Molecule,"Luminescence activity in the cell extracts, fold higher than wild KAZ [fold]"
1,B1,6.7
2,B2,15
3,B3,3.7
4,B4,23
5,B5,6.4
6,B6,22
